Results on 1 substance are retold here after paper PMC9473479.

Assay [1] deals with S40-H StrepII-tagged at its C-terminus (murine SPD scaffold carrying EsxH in the collagen-like region, CRD replaced by the murine CD40L 115-260 ectodomain) (Mus musculus | Mycobacterium tuberculosis | murine) (UniProt P27548). The assay is described as follows: non-reducing SDS-PAGE and Western blot. A general note: In western blotting, separated proteins are transferred to a membrane and probed.

The target is the same in assay [2]. The assay is described as follows: SEC; 50x-concentrated supernatant of LV::S40-H-StrepII-transduced HEK293T cells on Superose 6 HR 10/30, 50 mM phosphate buffer pH 7.5, 150 mM NaCl; calibrated with standard proteins; fractions analysed by Western blot in reducing conditions. In general terms: Size exclusion chromatography separates by hydrodynamic size, large species first.

Where “and” joins values, the source holds several entries; their conditions need not be identical. Identical values can stand only once.

One may read the stoichiometry N as the number of molecules, sites or subunits per partner or assembly. With “S40-H StrepII-tagged at its C-terminus (murine SPD scaffold carrying EsxH in the collagen-like region, CRD replaced by the murine CD40L 115-260 ectodomain) (from UniProt P27548 115-260)”, the stoichiometry N is 2 and 4 and 3 in assay [1]; 2 and 3 and 4 in assay [2].
